The text below walks through data of article PMC2120133 (The Journal of Cell Biology, 1994).

This assay deals with Gal4 DNA-binding domain-Nup1p carboxy-terminal fusion (pSWB11) (yeast, UniProt P20676 655-1076). Kind of assay: two-hybrid.
Gal4 DNA-binding domain-Nup1p carboxy-terminal fusion (pSWB11), sequence (P20676 655-1076): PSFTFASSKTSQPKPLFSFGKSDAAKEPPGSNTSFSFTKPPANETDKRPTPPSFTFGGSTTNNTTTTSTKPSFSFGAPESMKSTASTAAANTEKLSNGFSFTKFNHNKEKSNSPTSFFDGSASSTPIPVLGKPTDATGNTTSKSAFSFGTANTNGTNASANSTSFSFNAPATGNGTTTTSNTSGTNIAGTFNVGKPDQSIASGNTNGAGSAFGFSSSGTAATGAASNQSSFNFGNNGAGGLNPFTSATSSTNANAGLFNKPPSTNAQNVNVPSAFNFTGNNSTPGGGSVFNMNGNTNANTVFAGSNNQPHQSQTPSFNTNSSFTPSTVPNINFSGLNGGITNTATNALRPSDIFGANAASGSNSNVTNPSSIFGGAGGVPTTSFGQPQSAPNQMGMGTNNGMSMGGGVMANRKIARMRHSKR

B1: Gal4 activation domain-Srp1p fusion (pSWB17) (domain or fragment, yeast, UniProt Q02821 30-542, looked up)
chain: DELRRRRDTQQVELRKAKRDEALAKRRNFIPPTDGADSDEEDESSVSADQQFYSQLQQELPQMTQQLNSDDMQEQLSATVKFRQILSREHRPPIDVVIQAGVVPRLVEFMRENQPEMLQLEAAWALTNIASGTSAQTKVVVDADAVPLFIQLLYTGSVEVKEQAIWALGNVAGDSTDYRDYVLQCNAMEPILGLFNSNKPSLIRTATWTLSNLCRGKKPQPDWSVVSQALPTLAKLIYSMDTETLVDACWAISYLSDGPQEAIQAVIDVRIPKRLVELLSHESTLVQTPALRAVGNIVTGNDLQTQVVINAGVLPALRLLLSSPKENIKKEACWTISNITAGNTEQIQAVIDANLIPPLVKLLEVAEYKTKKEACWAISNASSGGLQRPDIIRYLVSQGCIKPLCDLLEIADNRIIEVTLDALENILKMGEADKEARGLNINENADFIEKAGGMEKIFNCQQNENDKIYEKAYKIIETYFGEEEDAVDETMAPQNAGNTFGFGSNVNQQFNFN
For B1, the “fold increase in beta-galactosidase activity” value is above 160 fold.
